Earlier results as cited in paper PMC3094721.

Target: ChemR23 (Homo sapiens) (UniProt Q99788)
Experiment: radioligand

chemerin peptide, sequence (Q99969 21-157): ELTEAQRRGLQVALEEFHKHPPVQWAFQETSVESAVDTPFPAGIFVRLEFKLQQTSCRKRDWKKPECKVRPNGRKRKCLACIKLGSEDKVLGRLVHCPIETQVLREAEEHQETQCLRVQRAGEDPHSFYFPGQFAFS
ChemR23 (Homo sapiens), sequence (Q99788 whole entry): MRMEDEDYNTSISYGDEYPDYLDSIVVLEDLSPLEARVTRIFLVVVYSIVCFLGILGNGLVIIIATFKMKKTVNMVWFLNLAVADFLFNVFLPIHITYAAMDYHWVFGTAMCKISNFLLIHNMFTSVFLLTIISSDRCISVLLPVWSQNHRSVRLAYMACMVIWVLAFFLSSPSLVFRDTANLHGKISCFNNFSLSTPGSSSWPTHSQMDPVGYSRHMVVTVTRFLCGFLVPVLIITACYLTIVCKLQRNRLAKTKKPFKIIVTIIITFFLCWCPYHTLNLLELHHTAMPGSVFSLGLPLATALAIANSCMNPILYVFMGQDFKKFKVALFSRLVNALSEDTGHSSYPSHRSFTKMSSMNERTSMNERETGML

Ki: 429 nM
Substance: chemerin peptide (from UniProt Q99969)
